From patent publication US20130273058A1
[ ]: non-standard residue; d: D form. The star is where a group is joined. Palmitoyl = CCCCCCCCCCCCCCCC(=O)*

Target: GFP-tagged beta-catenin (UniProt P35222)
Assay: microscale thermophoresis (Monolith NT.115); lysate of HEK293 cells with GFP-beta-catenin mixed with increasing CT-HC-5 in the presence of bicelles; Hill fit

Chain of GFP-tagged beta-catenin (P35222 whole entry): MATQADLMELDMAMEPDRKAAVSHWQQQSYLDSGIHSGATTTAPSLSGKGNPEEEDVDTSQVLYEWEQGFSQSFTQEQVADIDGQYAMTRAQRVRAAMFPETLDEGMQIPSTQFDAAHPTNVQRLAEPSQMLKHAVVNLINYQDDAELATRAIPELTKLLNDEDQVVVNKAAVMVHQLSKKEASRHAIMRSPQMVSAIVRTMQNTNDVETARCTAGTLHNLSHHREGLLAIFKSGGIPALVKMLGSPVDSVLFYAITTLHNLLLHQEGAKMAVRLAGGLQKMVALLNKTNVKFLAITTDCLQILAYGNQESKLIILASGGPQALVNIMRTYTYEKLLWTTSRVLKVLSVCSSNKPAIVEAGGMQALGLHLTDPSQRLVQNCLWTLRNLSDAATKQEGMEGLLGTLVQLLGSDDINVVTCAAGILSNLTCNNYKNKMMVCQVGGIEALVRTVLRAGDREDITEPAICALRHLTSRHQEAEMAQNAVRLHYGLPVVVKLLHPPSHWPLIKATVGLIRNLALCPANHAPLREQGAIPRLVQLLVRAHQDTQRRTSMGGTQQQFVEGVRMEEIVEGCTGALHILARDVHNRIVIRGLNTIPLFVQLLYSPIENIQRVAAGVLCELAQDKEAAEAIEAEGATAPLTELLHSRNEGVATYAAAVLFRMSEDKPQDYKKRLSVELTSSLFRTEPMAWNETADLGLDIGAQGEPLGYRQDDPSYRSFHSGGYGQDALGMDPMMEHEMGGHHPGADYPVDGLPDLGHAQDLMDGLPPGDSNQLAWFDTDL

Kd: 2.7 µM
B1: CT-HC-5 (peptide)
peptide: Palmitoyl-[dT][dR][dF][dL][dS][dS][dT][dL][dE][dV][dS][dL][dR][dK][dK]-NH2
SMILES: CCCCCCCCCCCCCCCC(=O)N[C@@H](C(=O)N[C@H](CCCNC(=N)N)C(=O)N[C@H](Cc1ccccc1)C(=O)N[C@H](CC(C)C)C(=O)N[C@H](CO)C(=O)N[C@H](CO)C(=O)N[C@@H](C(=O)N[C@H](CC(C)C)C(=O)N[C@H](CCC(=O)O)C(=O)N[C@@H](C(=O)N[C@H](CO)C(=O)N[C@H](CC(C)C)C(=O)N[C@H](CCCNC(=N)N)C(=O)N[C@H](CCCCN)C(=O)N[C@H](CCCCN)C(N)=O)C(C)C)[C@H](C)O)[C@H](C)O
